This is an account of results in doi:10.1101/2025.05.21.655431 (bioRxiv, 2025).

Series [1] has as its target T1, WRKY28 (Arabidopsis thaliana, UniProt Q8VWJ2 1-318). The series is described as follows: EMSA. (In EMSA bound probe runs differently from free probe, usually more slowly.)
In series [2] the target is T2, WRKY8 (Arabidopsis thaliana, UniProt Q9FL26 1-326). In words: EMSA.
For series [3], the target named is T3, WRKY48 (Arabidopsis thaliana, UniProt Q9FGZ4 1-399). In words: EMSA.
The target of series [4] is T1, WRKY28. In words: EMSA. The source holds these as a separate data set.
The target in series [5] is T2, WRKY8. In words: EMSA. This is another data set of the same source.
The target in series [6] is T3, WRKY48. The series is described as follows: EMSA. This is another data set of the same source.
A further series addresses His-WRKY48 (recombinant) (Arabidopsis thaliana, UniProt Q9FGZ4 1-399). In words: pull-down.

Like-named read-outs stand apart in the source and are kept apart here.

T2 sequence (Q9FL26 whole entry): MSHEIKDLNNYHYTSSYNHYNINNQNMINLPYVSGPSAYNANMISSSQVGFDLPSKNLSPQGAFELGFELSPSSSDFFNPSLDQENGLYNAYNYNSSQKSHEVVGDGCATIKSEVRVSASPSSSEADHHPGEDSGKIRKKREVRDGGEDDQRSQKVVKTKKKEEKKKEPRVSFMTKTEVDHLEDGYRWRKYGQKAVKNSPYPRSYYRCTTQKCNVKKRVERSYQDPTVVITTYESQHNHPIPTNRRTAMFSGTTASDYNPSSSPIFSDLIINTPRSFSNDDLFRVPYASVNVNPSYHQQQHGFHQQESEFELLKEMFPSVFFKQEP
T1 sequence (Q8VWJ2 whole entry): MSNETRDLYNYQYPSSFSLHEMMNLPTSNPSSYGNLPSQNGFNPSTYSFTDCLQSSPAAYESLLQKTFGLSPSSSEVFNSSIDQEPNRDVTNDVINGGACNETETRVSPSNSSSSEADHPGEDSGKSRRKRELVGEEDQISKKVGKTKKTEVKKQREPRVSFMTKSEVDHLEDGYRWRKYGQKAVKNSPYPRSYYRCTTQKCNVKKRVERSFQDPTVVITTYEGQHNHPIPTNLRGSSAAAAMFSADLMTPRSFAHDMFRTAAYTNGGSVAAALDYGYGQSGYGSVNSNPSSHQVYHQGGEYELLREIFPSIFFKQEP
T3 sequence (Q9FGZ4 whole entry): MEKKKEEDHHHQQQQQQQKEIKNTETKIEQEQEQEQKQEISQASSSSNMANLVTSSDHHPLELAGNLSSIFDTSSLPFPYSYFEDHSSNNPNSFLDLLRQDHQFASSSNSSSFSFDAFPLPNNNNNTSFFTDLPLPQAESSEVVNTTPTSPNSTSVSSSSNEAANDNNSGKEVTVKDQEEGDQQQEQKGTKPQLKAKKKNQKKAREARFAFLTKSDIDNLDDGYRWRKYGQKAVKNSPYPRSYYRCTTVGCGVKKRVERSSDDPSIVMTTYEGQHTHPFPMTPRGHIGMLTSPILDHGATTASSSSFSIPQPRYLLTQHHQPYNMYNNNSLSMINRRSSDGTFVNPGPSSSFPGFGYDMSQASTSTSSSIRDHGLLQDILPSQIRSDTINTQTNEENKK
Sequence of His-WRKY48 (recombinant) (Q9FGZ4 whole entry): as above

B1: CIPK6 promoter P1+P2 (dsDNA)
DNA 1: TAAATCGCATCGTGACCGGTCATAAAAAGACACGTGTCGTCATCGCTATCCAAATAATTGACAAACTCGAAGCCGCCAAGGG
DNA 2: CCCTTGGCGGCTTCGAGTTTGTCAATTATTTGGATAGCGATGACGACACGTGTCTTTTTATGACCGGTCACGATGCGATTTA
On to B1, for which the binding result with WRKY28 [1] is given as “no binding”; in the series with WRKY8 [2] it was “no binding”; with WRKY48 [3], “binds”.

B2: CIPK6 promoter P1 (TTGACA) (dsDNA)
DNA 1: CATCGCTATCCAAATAATTGACAAACTCGAAGCCGCC
DNA 2: GGCGGCTTCGAGTTTGTCAATTATTTGGATAGCGATG
For B2, the binding result in the series with WRKY28 [4] was “no binding”; with WRKY8 [5] it was “no binding”; with WRKY48 [6] it was “binds”.

B3: CIPK6 promoter P2 (GGTCA) (dsDNA)
DNA 1: GTTTAATTACTATCACACCGGTCACGCTGGTTTACC
DNA 2: GGTAAACCAGCGTGACCGGTGTGATAGTAATTAAAC
B3: the binding result with WRKY28 [4] and with WRKY8 [5] was “no binding” throughout.

B4: GST-MPK3 (recombinant) (enzyme, Arabidopsis thaliana, UniProt Q39023 1-370, looked up)
chain: MNTGGGQYTDFPAVETHGGQFISYDIFGSLFEITSKYRPPIIPIGRGAYGIVCSVLDTETNELVAMKKIANAFDNHMDAKRTLREIKLLRHLDHENIIAIRDVVPPPLRRQFSDVYISTELMDTDLHQIIRSNQSLSEEHCQYFLYQLLRGLKYIHSANIIHRDLKPSNLLLNANCDLKICDFGLARPTSENDFMTEYVVTRWYRAPELLLNSSDYTAAIDVWSVGCIFMELMNRKPLFPGKDHVHQMRLLTELLGTPTESDLGFTHNEDAKRYIRQLPNFPRQPLAKLFSHVNPMAIDLVDRMLTFDPNRRITVEQALNHQYLAKLHDPNDEPICQKPFSFEFEQQPLDEEQIKEMIYQEAIALNPTYG
In the case of B4, the binding result with His-WRKY48 (recombinant) is on record as “binds”.
